In the test the target is PspR, DTG rhodopsin from Pseudomonas putida (Pseudomonas putida). Put plainly: crystal structure.

What is called stoichiometry N is the number of molecules, sites or subunits per partner or assembly.

Take “PspR, DTG rhodopsin from Pseudomonas putida (natural protein)”: the stoichiometry N amounted to 3.
